Reference: PMC3355305, “Localized Dimerization and Nucleoid Binding Drive Gradient Formation by the Bacterial Cell Division Inhibitor MipZ” (Molecular Cell, 2012)

Test system: MipZ dimer
Assay: Concentration dependence of the MipZ ATPase activity
Type: biochemical, Caulobacter crescentus
Protocol: Figure 2 Biochemical Analysis of MipZ Dimerization (A) ATPase cycle of MipZ. See the main text for details. (B and C) SPR analysis of MipZ self-association. MipZ or its mutant derivatives (3500 RU) were immobilized on a sensor chip and tested for homotypic interaction with the respective soluble protein (0.5 μM) in the presence of ADP (B) or ATP (C). After the binding phase, the chip was washed with buffer lacking protein and nucleotides to follow the dissociation reaction. The rate constants (koff) determined for the dissociation of the MipZ and MipZ-D42A complexes are 0.83 min^−1 and 0.067 min^−1, respectively. (D) Nucleotide-dependent dimerization of MipZ. MipZ-D42A was incubated with ADP (blue), ATP (orange) or ATPγS (red) and subjected to size exclusion chromatography. (E) ATPase activity of MipZ and its mutant derivatives. The graph gives the average turnover rate (kapp, average turnovers/min per molecule of MipZ) of the different MipZ derivatives (6 μM). Data represent the average of at least three independent experiments (±SD). Note that consistent with a critical role of the metal cofactor in dimerization and catalysis Mg^2+ was required for ATP turnover (Figure S2H). (F) Concentration dependence of the MipZ ATPase activity. The average turnover rate of MipZ (kapp) was determined at the indicated protein concentrations. Fitting of the data to a model that relates kapp to the relative abundance of dimers at the indicated MipZ concentrations (see the Experimental Procedures) yielded values of 8.0 μM (±1.2 μM) for the apparent equilibrium dissociation constant (K) of the MipZ dimer and 0.67 min^−1 (±0.03 min^−1) for the turnover number (kcat) of MipZ molecules in the dimeric state. The rate of dimer formation (kon ∼ kcat/K) derived from these values is 1.4 × 10^3 M^−1 s^−1. Data represent the mean of two independent experiments. See also Figure S2. TEXT PRINTED IN THE PICTURE: (F) MipZ: K = 8.0 μM; kcat = 0.67 min^-1 […]
According to the law of mass action, MipZ exists as a mixture of monomers (assumed to be largely in the ATP-bound state) and dimers, the equilibrium ratio of which depends on the total concentration of MipZ molecules in the reaction. […] Its average turnover rate (kapp) increased with rising protein concentrations and finally approached a plateau that likely reflects a situation in which all MipZ molecules have transitioned to the active, dimeric state. […]
β-galactosidase, MipZ, and FtsZ activity assays are detailed in the Supplemental Experimental Procedures. […]
obtained from crystals flash frozen in a solution of 95% 2 mM, sa mp le s were taken and analyzed for the amount ethanol/50 mM Tris (pH 8.5), and collected at ID23-2, of [α-32P]-GDP produced in the reaction as described ESRF (Grenoble, France). […]

B1: MipZ: P loop ATPase and cell division inhibitor of Caulobacter crescentus; hexahistidine-tagged in vitro, YFP fusion in FRAP (protein)
chain: MAETRVIVVGNEKGGAGKSTIAVHLVTALLYGGAKVAVIDLDLRQRTSARFFENRRAWLDNKKIELPEPLALNLSDNDVALAERPEEEQVAGFEAAFARAMAECDFILIDTPGGDSAITRMAHGRADLVVTPMNDSFVDFDMLGTVDPVTLELTKPSLYSLTVWEGRKQRALSGQRQAMDWVVLRNRLATTEARNRKRLEDRLNALAKRVGFRIGPGLRDRVIYRELFPFGLTIADLSPQVRPVPVSLQHLAARQELRALMHSLGLSAYSGETMLAAQ
modifications: left off: His6, end not stated, state not stated
notes: hexahistidine-tagged in vitro, YFP fusion in FRAP
turnover number (kcat) of MipZ molecules in the dimeric state (ATP hydrolysis, fit of kapp vs MipZ concentration): 0.0112 s⁻¹ | rate of dimer formation (kon ∼ kcat/K) (derived from K and kcat): 1400 M⁻¹ s⁻¹ | Kd (fit of kapp vs MipZ concentration, 2 mM ATP, read-out: apparent equilibrium dissociation constant (K) of the MipZ dimer): 8 µM | lifetime of the sandwich dimer (τ ∼ 1/kcat) (hydrolysis-driven dissociation): ~90 s
